Laboratory results taken from patent publication US20250145711A1 (Janssen / Centocor, published 2025).

Columns and labels:
[1] = molecular target: T1, TRCW5 antigen (CD3δε-Fc-Avi) (biotinylated (site not stated)); assay: ELISA: biotinylated TRCW5 on streptavidin plates at the antigen concentration of the x axis, E. coli scFv supernatant, anti-HA-HRP, luminescence
T1 construct: also called recombinant CD3
Protocol: (§1) Briefly, DNA was transformed into an E. coli expression vector to generate scFv molecules having a C-terminal HA-tag, and cells were plated on 2×YT/Carb/2% Glucose grown overnight at 37 C. Colonies were picked and transferred 50 ul of overnight growth cultures to new plates containing 500 ul of 2×YT/Carb/0.1% Glucose, grown for 6-7 hr, and combined with 50 ul 2×YT medium containing 1×carbenicillin & 12×IPTG. Cultures were incubated with shaking ˜600 RPM 30° C. overnight. Streptavidin coated plates were bound with 50 μL of biotinylated TRCW5 antigen (CD3δε-Fc-Avi, SEQ ID NO: 39) at the concentrations indicated in the ELISA graph for 45 min at room temperature with shaking (FIG. 1, FIG. 3, FIG. 4) followed by washing 3× with 1×TBST. Plates were blocked with 200 ul 3% Milk in 1×TBST for ˜45 mins at room temperature followed by washing 3× with 1×TBST. E. coli cultures were harvested by centrifugation at […] for 10 mins 4° C. and 50 μL of supernatant was transferred into CD3-coated plates followed by incubation at 4 C for 45 min. Plates were washed 3× with 1×TBST. Bound scFv was detected with Chicken Polyclonal Anti-HA-HRP (ab1190) [1:1000] for ˜45 mins RT and luminescence detected with chemi-luminescent substrate.

[2] = molecular target: T2, human PSMA on prostate cancer cell lines (22RV1, C4-2B) (human, UniProt Q04609 1-750); assay: flow cytometry on 22RV1 cells; 22RV1 cells
T2 construct: also called PSMA-expressing cell lines
T2 sequence (Q04609 whole entry): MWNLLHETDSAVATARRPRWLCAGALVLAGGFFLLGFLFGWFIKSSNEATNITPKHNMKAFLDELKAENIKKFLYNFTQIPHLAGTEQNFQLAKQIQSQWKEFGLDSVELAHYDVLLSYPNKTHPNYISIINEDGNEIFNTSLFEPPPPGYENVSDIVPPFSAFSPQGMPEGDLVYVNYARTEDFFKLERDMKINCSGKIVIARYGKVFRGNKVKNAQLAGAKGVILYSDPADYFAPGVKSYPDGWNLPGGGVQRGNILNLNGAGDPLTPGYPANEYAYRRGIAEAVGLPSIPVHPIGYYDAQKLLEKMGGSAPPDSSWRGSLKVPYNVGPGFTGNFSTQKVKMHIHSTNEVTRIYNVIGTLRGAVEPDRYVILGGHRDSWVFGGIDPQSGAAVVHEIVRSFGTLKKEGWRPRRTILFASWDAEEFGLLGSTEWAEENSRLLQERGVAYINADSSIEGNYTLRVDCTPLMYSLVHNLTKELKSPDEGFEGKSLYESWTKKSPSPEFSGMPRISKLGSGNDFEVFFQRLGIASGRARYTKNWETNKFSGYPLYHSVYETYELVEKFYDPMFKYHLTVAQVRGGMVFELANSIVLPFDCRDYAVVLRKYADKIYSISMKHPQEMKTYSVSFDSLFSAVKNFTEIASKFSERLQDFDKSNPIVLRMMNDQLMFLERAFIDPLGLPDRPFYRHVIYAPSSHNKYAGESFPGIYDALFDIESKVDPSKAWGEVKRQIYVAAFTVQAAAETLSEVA
Protocol: (§2) 22RV1 and C4-2B cells were plated at 50,000 cells per well in 50 μl of assay medium (RPMI, 10% HI FBS) in V bottom plates. Serial dilutions of antibodies were prepared in assay medium with 50 μl of antibody dilutions added to the plates containing cells. The plates were incubated for 60 min at 37° C. at which time 100 μl of staining buffer (Becton Dickinson Cat #554657) was added to all wells of each plate. The plates were centrifuged at 300×G for 5 minutes and the medium was removed from the wells. 200 μl of staining buffer was added to all wells of each plate. The plates were centrifuged at 300× G for 5 minutes and the medium was removed from the wells. 50 μl of 2 μg/ml AlexaFluor647-labeled goat anti-human Fc was added to all wells of the plates and the plates were incubated for 30 minutes at 4° C. 150 μl of staining buffer was added to all wells of each plate. The plates were centrifuged at 300× G for 5 minutes and the medium was removed from the wells.

[3] = molecular target: T2, human PSMA on prostate cancer cell …; assay: flow cytometry on C4-2B cells
Protocol: as §2

[4] = molecular target: PSMA on C4-2B human prostate tumor cells (human, UniProt Q04609 1-750); assay: flow cytometry, C4-2B cells
PSMA on C4-2B human prostate tumor cells, sequence (Q04609 whole entry): as above
Protocol: Molecule concentrations ranged from 500-0 nM over 12-points at 3-fold dilution. […] Values reported in the Table 69 were generated by fitting the data to a four-parameter function for ligand binding generating values for y-min, y-max, EC50, and Hill. EC90 were calculated using the equation EC90=[…]\hat{ }(1/Hill)*EC50.

[5] = molecular target: T1, TRCW5 antigen (CD3δε-Fc-Avi); assay: ELISA after heat
[6] = molecular target: T1, TRCW5 antigen (CD3δε-Fc-Avi); assay: ELISA: biotinylated TRCW5 on streptavidin plates at the [CD3] of the x axis, E. coli scFv supernatant, anti-HA-HRP, luminescence
Protocol: as §1

[7] = molecular target: T1, TRCW5 antigen (CD3δε-Fc-Avi); assay: ELISA, E. coli scFv on biotinylated TRCW5
Protocol: as §1

T1 sequence (chain, as listed by the source mutant limits assumed): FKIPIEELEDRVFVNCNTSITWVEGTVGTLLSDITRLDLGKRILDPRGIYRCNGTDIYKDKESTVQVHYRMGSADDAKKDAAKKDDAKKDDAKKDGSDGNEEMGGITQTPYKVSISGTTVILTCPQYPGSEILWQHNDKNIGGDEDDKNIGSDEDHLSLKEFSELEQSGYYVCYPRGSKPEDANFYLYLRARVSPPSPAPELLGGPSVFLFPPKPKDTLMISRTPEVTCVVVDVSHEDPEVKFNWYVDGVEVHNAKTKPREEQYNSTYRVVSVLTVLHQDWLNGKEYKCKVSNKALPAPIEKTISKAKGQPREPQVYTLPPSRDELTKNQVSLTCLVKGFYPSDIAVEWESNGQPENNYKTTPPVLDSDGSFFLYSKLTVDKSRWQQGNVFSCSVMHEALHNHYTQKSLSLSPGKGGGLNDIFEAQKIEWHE

B1: CD3B1136 (scFv)
scFv, VL-linker-VH (LH): EIVLTQSPATLSLSPGERATLSCSASSSVSYMNWYQQKPGTSPRRLIYDSSKLASGIPARFSGSGSGRDYTLTISSLEPEDFAVYYCQQWSRNPPTFGGGTKVEIKGGSEGKSSGSGSESKSTGGSEVQLVQSGAEVKKPGESLRISCKASGYTFTRSTMHWVRQMPGKGLEWMGYINPSSAYTNYNPSFQGHVTLSADKSISTAYLQWSSLKASDTAMYYCARPQVHYDYNGFPYWGQGTLVTVSS
Question: Does B1 bind [1]?
Answer: no binding (tested: 10 ug/ml (antigen))

B2: PS3B918 (bispecific antibody, human IgG1, lambda, L234A L235A)
heavy 1: QVQLQQSGPRLVRPSQTLSLTCAISGDSVFNNNAAWSWIRQSPSRGLEWLGRTYYRSKWLYDYAVSVKSRITVNPDTSRNQFTLQLNSVTPEDTALYYCARGYSSSFDYWGQGTLVTVSSASTKGPSVFPLAPSSKSTSGGTAALGCLVKDYFPEPVTVSWNSGALTSGVHTFPAVLQSSGLYSLSSVVTVPSSSLGTQTYICNVNHKPSNTKVDKKVEPKSCDKTHTCPPCPAPEAAGGPSVFLFPPKPKDTLMISRTPEVTCVVVSVSHEDPEVKFNWYVDGVEVHNAKTKPREEQYNSTYRVVSVLTVLHQDWLNGKEYKCKVSNKALPAPIEKTISKAKGQPREPQVYTLPPSREEMTKNQVSLTCLVKGFYPSDIAVEWESNGQPENNYKTTPPVLDSDGSFLLYSKLTVDKSRWQQGNVFSCSVMHEALHNHYTQKSLSLSPG
light 1: QSALTQPASVSGSPGQSITISCTGTSSNIGTYKFVSWYQQHPDKAPKVLLYEVSKRPSGVSSRFSGSKSGNTASLTISGLQAEDQADYHCVSYAGSGTLLFGGGTKLTVLGQPKAAPSVTLFPPSSEELQANKATLVCLISDFYPGAVTVAWKADSSPVKAGVETTTPSKQSNNKYAASSYLSLTPEQWKSHRSYSCQVTHEGSTVEKTVAPTECS
heavy 2: EVQLVESGGGLVKPGGSLRLSCAASGFTFSRYNMNWVRQAPGKGLEWVSSINSNSRYIYYADSVKGRFTISRDSAKNSLYLQMNSLRAEDTAVYYCAKTMGDYYYYYGMDVWGQGTTVTVSSASTKGPSVFPLAPSSKSTSGGTAALGCLVKDYFPEPVTVSWNSGALTSGVHTFPAVLQSSGLYSLSSVVTVPSSSLGTQTYICNVNHKPSNTKVDKKVEPKSCDKTHTCPPCPAPEAAGGPSVFLFPPKPKDTLMISRTPEVTCVVVSVSHEDPEVKFNWYVDGVEVHNAKTKPREEQYNSTYRVVSVLTVLHQDWLNGKEYKCKVSNKALPAPIEKTISKAKGQPREPQVYTLPPSREEMTKNQVSLTCLVKGFYPSDIAVEWESNGQPENNYKTTPPVLDSDGSFFLYSRLTVDKSRWQQGNVFSCSVMHEALHNHYTQKSLSLSPG
light 2: SSELTQPPSVSGAPGQRVTISCAGSLSNIGAGYDVHWYQQLPGTAPKLLIYGNINRLSGVPERFSGSKSGTSASLAITGLQAEDGADYYCQSYDSSLSSYVFGTGTKVTVLGQPKAAPSVTLFPPSSEELQANKATLVCLISDFYPGAVTVAWKADSSPVKAGVETTTPSKQSNNKYAASSYLSLTPEQWKSHRSYSCQVTHEGSTVEKTVAPTECS
notes: FAB-A: CD3B891 (CD3B376 - K477); FAB-B: PSMB890
Question: What does the source list for B2?
Answer: EC50 [2]: ≥ 60 nM; EC50 [3]: 60 nM

B3: PSMB1069 (bispecific antibody, human IgG1, kappa, L234A L235A)
heavy: not shown
light: not shown
chain: QVQLVESGGGEVQPGRSLRLSCAASGFSFSGYGMHWVRQAPGKGLEWVAVMSYDGSNRFYVDSVRGRFSISRDNSKNTLYLQMNSLRPEDTAVYYCARDTVWGSHPDAFDIWGQGTVVTVSSGGSEGKSSGSGSESKSTGGSQSVLTQPPSVSVAPGQTARITCGGNNSGSKSVHWYQQKPGQAPVLVVYDDSDRPSGIPERFSGSNSGNTATLTISRVEAGDEADYYCQVWDSSSDHGVFGGGTKLTVLEPKSSDKTHTCPPCPAPEAAGGPSVFLFPPKPKDTLMISRTPEVTCVVVSVSHEDPEVKFNWYVDGVEVHNAKTKPREEQYNSTYRVVSVLTVLHQDWLNGKEYKCKVSNKALPAPIEKTISKAKGQPREPQVYVLPPSREEMTKNQVSLLCLVKGFYPSDIAVEWESNGQPENNYLTWPPVLDSDGSFFLYSKLTVDKSRWQQGNVFSCSVMHEALHNHYTQKSLSLSPG
notes: HC1/LC1 null arm; HC2 is the anti-PSMA scFv-Fc
Question: B3 was tested. Which “fold binding signal (Y-max) over the average” value [4] did it give?
Answer: 2 fold

B4: CD3B1127 (scFv)
scFv: QVQLQQSGAELARPGASVKMSCKASGYTFTRSTMHWVKQRPGQGLEWIGYINPSSAYTNYNQKFKDKATLTADKSSSTAYMQLSSLTSEDSAVYYCASPQVHYDYNGFPYWGQGTLVTVSAGGSEGKSSGSGSESKSTGGSQVVLTQSPAIMSAFPGEKVTMTCSASSSVSYMNWYQQKSGTSPKRWIYDSSKLASGVPARFSGSGSGTSYSLTISSMETEDAATYYCQQWSRNPPTFGGGTKLQIT
notes: also called Murine HL; murine Cris-7 scFv (HL)
Question: With B4 as the binder, how does the “% Retained 55° C.” value [5] read?
Answer: 19%

Question: And the “% Retained 60° C.” value [5]?
Answer: 0%

Question: And the “% Retained 65° C.” value [5]?
Answer: 1%

Question: What about the “EC50 (read off the curve)” value [6] of the same binder?
Answer: ~0.4 nM

Question: And the EC50 [7]?
Answer: ~0.397 nM
